In ChEMBL document CHEMBL2074453, “Role of multidrug resistance protein 1 (MRP1) and glutathione S-transferase A1-1 in alkylating agent resistance. Kinetics of glutathione conjugate formation and efflux govern differential cellular sensitivity to chlorambucil versus melphalan toxicity” (J Biol Chem, 2001) one finds Km data, which are given here for 1 protein.

Substrate in series [1]: NC(CCC(=O)NC(CSCCN(CCCl)c1ccc(CCCC(=O)O)cc1)C(=O)NCC(=O)O)C(=O)O
In words: TP_TRANSPORTER: uptake in membrane vesicle from MCF/VP cells. In kind it is functional, cell membranes.

Substrate in series [2]: NC(Cc1ccc(N(CCCl)CCSC[C@H](NC(=O)CC[C@H](N)C(=O)O)C(=O)NCC(=O)O)cc1)C(=O)O
In words: TP_TRANSPORTER: uptake in membrane vesicle from MCF7/VP cells. The series is classed as functional, cell membranes.

B1: Multidrug resistance-associated protein 1 (Homo sapiens) (protein)
chain: MALRGFCSADGSDPLWDWNVTWNTSNPDFTKCFQNTVLVWVPCFYLWACFPFYFLYLSRHDRGYIQMTPLNKTKTALGFLLWIVCWADLFYSFWERSRGIFLAPVFLVSPTLLGITMLLATFLIQLERRKGVQSSGIMLTFWLVALVCALAILRSKIMTALKEDAQVDLFRDITFYVYFSLLLIQLVLSCFSDRSPLFSETIHDPNPCPESSASFLSRITFWWITGLIVRGYRQPLEGSDLWSLNKEDTSEQVVPVLVKNWKKECAKTRKQPVKVVYSSKDPAQPKESSKVDANEEVEALIVKSPQKEWNPSLFKVLYKTFGPYFLMSFFFKAIHDLMMFSGPQILKLLIKFVNDTKAPDWQGYFYTVLLFVTACLQTLVLHQYFHICFVSGMRIKTAVIGAVYRKALVITNSARKSSTVGEIVNLMSVDAQRFMDLATYINMIWSAPLQVILALYLLWLNLGPSVLAGVAVMVLMVPVNAVMAMKTKTYQVAHMKSKDNRIKLMNEILNGIKVLKLYAWELAFKDKVLAIRQEELKVLKKSAYLSAVGTFTWVCTPFLVALCTFAVYVTIDENNILDAQTAFVSLALFNILRFPLNILPMVISSIVQASVSLKRLRIFLSHEELEPDSIERRPVKDGGGTNSITVRNATFTWARSDPPTLNGITFSIPEGALVAVVGQVGCGKSSLLSALLAEMDKVEGHVAIKGSVAYVPQQAWIQNDSLRENILFGCQLEEPYYRSVIQACALLPDLEILPSGDRTEIGEKGVNLSGGQKQRVSLARAVYSNADIYLFDDPLSAVDAHVGKHIFENVIGPKGMLKNKTRILVTHSMSYLPQVDVIIVMSGGKISEMGSYQELLARDGAFAEFLRTYASTEQEQDAEENGVTGVSGPGKEAKQMENGMLVTDSAGKQLQRQLSSSSSYSGDISRHHNSTAELQKAEAKKEETWKLMEADKAQTGQVKLSVYWDYMKAIGLFISFLSIFLFMCNHVSALASNYWLSLWTDDPIVNGTQEHTKVRLSVYGALGISQGIAVFGYSMAVSIGGILASRCLHVDLLHSILRSPMSFFERTPSGNLVNRFSKELDTVDSMIPEVIKMFMGSLFNVIGACIVILLATPIAAIIIPPLGLIYFFVQRFYVASSRQLKRLESVSRSPVYSHFNETLLGVSVIRAFEEQERFIHQSDLKVDENQKAYYPSIVANRWLAVRLECVGNCIVLFAALFAVISRHSLSAGLVGLSVSYSLQVTTYLNWLVRMSSEMETNIVAVERLKEYSETEKEAPWQIQETAPPSSWPQVGRVEFRNYCLRYREDLDFVLRHINVTINGGEKVGIVGRTGAGKSSLTLGLFRINESAEGEIIIDGINIAKIGLHDLRFKITIIPQDPVLFSGSLRMNLDPFSQYSDEEVWTSLELAHLKDFVSALPDKLDHECAEGGENLSVGQRQLVCLARALLRKTKILVLDEATAAVDLETDDLIQSTIRTQFEDCTVLTIAHRLNTIMDYTRVIVLDKGEIQEYGAPSDLLQQRGLFYSMAKDAGLV
On to B1, for which the Michaelis constant (Km) (in general, the concentration of substrate that gives half-maximal velocity) in series [1] amounted to 0.37 µM; in series [2] it was 1.14 µM.
